In patent publication US20170368138A1 (published 2017):

Target: U87MG
Assay: flow cytometry, cell binding; human U87MG cells

B1: NOD201M (Fc fusion)
chain: GCPRPRGDNPPLTCSQDSDCLAGCVCGPNGFCGEPRVPITQNPCPPLKECPPCAAPDLLGGPSVFIFPPKIKDVLMISLSPMVTCVVVDVSEDDPDVQISWFVNNVEVHTAQTQTHREDYNSTLRVVSALPIQHQDWMSGKEFKCKVNNRALPSPIEKTISKPRGPVRAPQVYVLPPPAEEMTKKEFSLTCMITGFLPAEIAVDWTSNGRTEQNYKNTATVLDSDGSYFMYSKLRVQKSTWERGSLFACSVVHEGLHNHLTTKTISRSLG
Kd: 0.7 nM
